The record followed here is publication PMC10656227.

The target of experiment [1] is collagen IV NC1 domains of the NC1 hexamer from California blackworms (California blackworm (Lumbriculus variegatus)). Nature of the experiment: SDS-PAGE (SDS resistance of the native hexamer); straight collagenase digest of tissue or animals; SDS-PAGE with 150 mM NaCl; sample at room temperature; Western blot with JK2.
Experiment [2] has the same target. In words: SDS-PAGE (SDS resistance of the native hexamer); straight collagenase digest of tissue or animals; regular SDS-PAGE without Cl^− supplement; sample at room temperature; Western blot with JK2.
In experiment [3] the target is collagen IV NC1 domains of the NC1 hexamer from placenta basement membrane (bovine). In words: SDS-PAGE (SDS resistance of the native hexamer); purified NC1 hexamer; Tris-glycine SDS-PAGE with 150 mM NaCl in running buffer and sample buffer; sample at room temperature, not boiled; Coomassie, TCE or Western blot.
Experiment [4] has as its target collagen IV NC1 domains of the NC1 hexamer from African clawed frog kidney (African clawed frog (Xenopus laevis)). Nature of the experiment: SDS-PAGE (SDS resistance of the native hexamer); straight collagenase digest of tissue or animals; SDS-PAGE with 150 mM NaCl; sample at room temperature; Western blot with JK2.
Experiment [5] addresses collagen IV NC1 domains of the α121 NC1 hexamer from lens capsule basement membrane (bovine). In words: SDS-PAGE (SDS resistance of the native hexamer); purified NC1 hexamer; Tris-glycine SDS-PAGE with 150 mM NaCl in running buffer and sample buffer; sample at room temperature, not boiled; Coomassie, TCE or Western blot.
The target of experiment [6] is collagen IV NC1 domains of the NC1 hexamer from rooster liver, kidney and chorioallantoic membrane (rooster (Gallus gallus domesticus)). The description is as above.
The target of experiment [7] is collagen IV NC1 domains of the NC1 hexamer from sea clam (sea clam (Spisula solidissima)). In words: SDS-PAGE (SDS resistance of the native hexamer); straight collagenase digest of tissue or animals; SDS-PAGE with 150 mM NaCl; sample at room temperature; Western blot with JK2.
The target is the same in experiment [8]. Nature of the experiment: SDS-PAGE (SDS resistance of the native hexamer); straight collagenase digest of tissue or animals; regular SDS-PAGE without Cl^− supplement; sample at room temperature; Western blot with JK2.
The target of experiment [9] is collagen IV NC1 domains of the NC1 hexamer from quick gloss snail (quick gloss snail (Zonitoides arboreus)). Nature of the experiment: SDS-PAGE (SDS resistance of the native hexamer); partially purified NC1 hexamer (SEC hexamer fraction); SDS-PAGE with 150 mM NaCl; sample at room temperature; Western blot with JK2 or TCE in-gel visualization.
The target is the same in experiment [10]. Nature of the experiment: SDS-PAGE (SDS resistance of the native hexamer); partially purified NC1 hexamer (SEC hexamer fraction); regular SDS-PAGE without Cl^− supplement; sample at room temperature; Western blot with JK2 or TCE in-gel visualization.
The target in experiment [11] is collagen IV NC1 domains of the NC1 hexamer from sea squirt (sea squirt (Ciona intestinalis)). Nature of the experiment: SDS-PAGE (SDS resistance of the native hexamer); collagenase digest, soluble fraction; Bis-Tris gel, Mops running buffer with 150 mM NaCl, sample buffer with 400 mM NaCl; sample at room temperature; Western blot with JK2.
Experiment [12] deals with collagen IV NC1 domains of the NC1 hexamer from banded killifish organs (banded killifish (Fundulus heteroclitus)). Nature of the experiment: SDS-PAGE (SDS resistance of the native hexamer); straight collagenase digest of tissue or animals; SDS-PAGE with 150 mM NaCl; sample at room temperature; Western blot with JK2.
Experiment [13] has the same target. In words: SDS-PAGE (SDS resistance of the native hexamer); straight collagenase digest of tissue or animals; regular SDS-PAGE without Cl^− supplement; sample at room temperature; Western blot with JK2.
For experiment [14], the target named is collagen IV NC1 domains of the NC1 hexamer from starfish gonads (starfish (Asterias rubens)). Nature of the experiment: SDS-PAGE (SDS resistance of the native hexamer); straight collagenase digest of tissue or animals; SDS-PAGE with 150 mM NaCl; sample at room temperature; Western blot with JK2.
Experiment [15] deals with collagen IV NC1 domains of the NC1 hexamer from market squid lens capsules (market squid (Doryteuthis opalescens)). Nature of the experiment: SDS-PAGE (SDS resistance of the native hexamer); partially purified NC1 hexamer (SEC hexamer fraction); SDS-PAGE with 150 mM NaCl; sample at room temperature; Western blot with JK2 or TCE in-gel visualization.
Experiment [16] concerns the target collagen IV NC1 domains of the NC1 hexamer from green iguana heart and kidney (green iguana (Iguana iguana)). In words: SDS-PAGE (SDS resistance of the native hexamer); straight collagenase digest of tissue or animals; SDS-PAGE with 150 mM NaCl; sample at room temperature; Western blot with JK2.
Experiment [17] has the same target. Nature of the experiment: SDS-PAGE (SDS resistance of the native hexamer); straight collagenase digest of tissue or animals; regular SDS-PAGE without Cl^− supplement; sample at room temperature; Western blot with JK2.
The target of experiment [18] is collagen IV NC1 domains of the NC1 hexamer from dogfish lens capsule, kidney and intestine (dogfish (Squalus acanthias)). In words: SDS-PAGE (SDS resistance of the native hexamer); purified NC1 hexamer; regular SDS-PAGE without Cl^− supplement; sample at room temperature, not boiled; Coomassie, TCE or Western blot.
Experiment [19] shares this target. Nature of the experiment: SDS-PAGE (SDS resistance of the native hexamer); purified NC1 hexamer; Tris-glycine SDS-PAGE with 150 mM NaCl in running buffer and sample buffer; sample at room temperature, not boiled; Coomassie, TCE or Western blot.
For experiment [20], the target named is collagen IV NC1 domains of the NC1 hexamer from axolotl kidney (axolotl (Ambystoma mexicanum)). In words: SDS-PAGE (SDS resistance of the native hexamer); straight collagenase digest of tissue or animals; SDS-PAGE with 150 mM NaCl; sample at room temperature; Western blot with JK2.
Experiment [21] deals with collagen IV NC1 domains of the NC1 hexamer from caiman liver (caiman (Caiman crocodilus)). The experiment is described as above.
For experiment [22], the target named is collagen IV NC1 domains of the NC1 hexamer from mussel (mussel (Mytilus edulis)). Described as above.
For experiment [23] the target is unchanged. In words: SDS-PAGE (SDS resistance of the native hexamer); straight collagenase digest of tissue or animals; regular SDS-PAGE without Cl^− supplement; sample at room temperature; Western blot with JK2.
Experiment [24] addresses collagen IV NC1 domains of the NC1 hexamer from zebrafish material (zebrafish (Danio rerio)). Nature of the experiment: SDS-PAGE (SDS resistance of the native hexamer); partially purified NC1 hexamer (SEC hexamer fraction); SDS-PAGE with 150 mM NaCl; sample at room temperature; Western blot with JK2 or TCE in-gel visualization.
For experiment [25] the target is unchanged. In words: SDS-PAGE (SDS resistance of the native hexamer); partially purified NC1 hexamer (SEC hexamer fraction); regular SDS-PAGE without Cl^− supplement; sample at room temperature; Western blot with JK2 or TCE in-gel visualization.
The target of experiment [26] is collagen IV NC1 domains of the NC1 hexamer from leeches (leech (Hirudo medicinalis)). In words: SDS-PAGE (SDS resistance of the native hexamer); straight collagenase digest of tissue or animals; SDS-PAGE with 150 mM NaCl; sample at room temperature; Western blot with JK2.
Experiment [27] has the same target. Nature of the experiment: SDS-PAGE (SDS resistance of the native hexamer); straight collagenase digest of tissue or animals; regular SDS-PAGE without Cl^− supplement; sample at room temperature; Western blot with JK2.
For experiment [28], the target named is collagen IV NC1 domains of the NC1 hexamer from snapping turtle muscle (snapping turtle (Chelydra serpentina)). In words: SDS-PAGE (SDS resistance of the native hexamer); straight collagenase digest of tissue or animals; SDS-PAGE with 150 mM NaCl; sample at room temperature; Western blot with JK2.
Experiment [29] addresses collagen IV NC1 domains of the NC1 hexamer from human kidney (human (Homo sapiens)). Nature of the experiment: SDS-PAGE (SDS resistance of the native hexamer); purified NC1 hexamer; Tris-glycine SDS-PAGE with 150 mM NaCl in running buffer and sample buffer; sample at room temperature, not boiled; Coomassie, TCE or Western blot.

For “collagen IV NC1 domains of the NC1 hexamer from California blackworms (domain or fragment)”, the stoichiometry N in experiment [1] and in [2] was 6 throughout. In turn, “collagen IV NC1 domains of the NC1 hexamer from placenta basement membrane (domain or fragment)” registered a stoichiometry N in experiment [3] of 6. “collagen IV NC1 domains of the NC1 hexamer from African clawed frog kidney (domain or fragment)”: in experiment [4], the stoichiometry N was 6. As to “collagen IV NC1 domains of the α121 NC1 hexamer from lens capsule basement membrane (domain or fragment)”, in [5], the stoichiometry N is 6. Regarding “collagen IV NC1 domains of the NC1 hexamer from rooster liver, kidney and chorioallantoic membrane (domain or fragment)”, the stoichiometry N in [6] is 6.

As to “collagen IV NC1 domains of the NC1 hexamer from sea clam (domain or fragment)”, the stoichiometry N in [7] and in experiment [8] was 6 each time. For “collagen IV NC1 domains of the NC1 hexamer from quick gloss snail (domain or fragment)”, the stoichiometry N in [9] and in [10] was 6 throughout. Consider “collagen IV NC1 domains of the NC1 hexamer from sea squirt (domain or fragment)”, for which the stoichiometry N in experiment [11] was 6. For the substance “collagen IV NC1 domains of the NC1 hexamer from banded killifish organs (domain or fragment)”, the stoichiometry N in [12] and in experiment [13] was 6 each time.

As to “collagen IV NC1 domains of the NC1 hexamer from starfish gonads (domain or fragment)”, the stoichiometry N in experiment [14] came out at 6. “collagen IV NC1 domains of the NC1 hexamer from market squid lens capsules (domain or fragment)” returned a stoichiometry N in experiment [15] of 6. For “collagen IV NC1 domains of the NC1 hexamer from green iguana heart and kidney (domain or fragment)”, the stoichiometry N in experiment [16] and in experiment [17] was 6 each time.

Turning to “collagen IV NC1 domains of the NC1 hexamer from dogfish lens capsule, kidney and intestine (domain or fragment)”, the stoichiometry N in experiment [18] and in experiment [19] was 6 in each case.

“collagen IV NC1 domains of the NC1 hexamer from axolotl kidney (domain or fragment)” showed a stoichiometry N in [20] of 6. As for “collagen IV NC1 domains of the NC1 hexamer from caiman liver (domain or fragment)”, the stoichiometry N in experiment [21] is 6. Regarding “collagen IV NC1 domains of the NC1 hexamer from mussel (domain or fragment)”, the stoichiometry N in [22] and in experiment [23] was 6 each time. Turning to “collagen IV NC1 domains of the NC1 hexamer from zebrafish material (domain or fragment)”, the stoichiometry N in [24] and in experiment [25] was 6 in each case. Regarding “collagen IV NC1 domains of the NC1 hexamer from leeches (domain or fragment)”, the stoichiometry N in experiment [26] and in experiment [27] was 6 in each case.

In the case of “collagen IV NC1 domains of the NC1 hexamer from snapping turtle muscle (domain or fragment)”, the stoichiometry N in experiment [28] amounted to 6. In the case of “collagen IV NC1 domains of the NC1 hexamer from human kidney (domain or fragment)”, the stoichiometry N in [29] came to 6.
